# Where a chain is given by its changes, count along the chain named.
# T1: activin B (UniProt P09529 293-407)
# T1 sequence (looked up): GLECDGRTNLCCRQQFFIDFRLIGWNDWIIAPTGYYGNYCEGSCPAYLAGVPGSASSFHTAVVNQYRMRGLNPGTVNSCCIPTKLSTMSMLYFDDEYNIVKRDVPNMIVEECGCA
# T2: BMP9 (UniProt Q9UK05 320-429)
# T2 sequence (looked up): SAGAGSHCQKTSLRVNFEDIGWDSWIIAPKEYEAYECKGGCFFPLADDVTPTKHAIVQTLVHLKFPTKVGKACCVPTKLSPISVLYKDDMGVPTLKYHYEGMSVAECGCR
# T3: activin A (UniProt P08476 311-426)
# T3 sequence (looked up): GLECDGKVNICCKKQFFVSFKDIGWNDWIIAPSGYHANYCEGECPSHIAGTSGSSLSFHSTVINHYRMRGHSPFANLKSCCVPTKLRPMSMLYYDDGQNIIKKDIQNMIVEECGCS
# T4: myostatin (UniProt O14793 267-375)
# T4 sequence (looked up): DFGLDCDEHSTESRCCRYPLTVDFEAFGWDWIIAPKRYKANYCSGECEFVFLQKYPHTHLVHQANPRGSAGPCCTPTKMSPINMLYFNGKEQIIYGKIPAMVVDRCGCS
# B1: wild-type ActRIIB-ECD-Fc fusion protein (Fc fusion, not shown: a dimerising Fc or GST)
# chain: ETRECIYYNANWELERTNQSGLERCEGEQDKRLHCYASWRNSSGTIELVKKGCWLDDFNCYDRQECVATEENPQVYFCCCEGNFCNERFTHLPEAGGPEVTYEPPPTAPTGGGGSESKYGPPCPPCP
# B2: AG-0014 hybrid ActRIIB ligand trap protein (Fc fusion, not shown: a dimerising Fc or GST)
# chain: B1 chain with E26Y, E28D, Q29K, L33R
# B3: AG-0027 hybrid ActRIIB ligand trap protein (Fc fusion, not shown: a dimerising Fc or GST)
# chain: B1 chain with E28D, F58I, E70K
# B4: AG-0011 hybrid ActRIIB ligand trap protein (Fc fusion)
# chain: B1 chain with E28D, A68E, T69K, E70K, E71D, N72S, Q74E, F84M
# notes: ECD - linker - hinge linker - Fc; signal peptide left out; not shown: human Fc domain
# How the values were obtained:
# activin B = target: T1, activin B; test: cell-based or functional assay
# BMP9 [1] = target: T2, BMP9; test: cell-based or functional assay
# activin A = target: T3, activin A; test: cell-based or functional assay
# myostatin [2] = target: T4, myostatin; test: cell-based or functional assay
# myostatin [3] = target: T4, myostatin; test: Octet Red BLI; protein on AHC biosensor, 10 nM ligand; legend +++ KD <10^-8M
# Description: (§1) Myostatin and BMP9 binding activities of various hybrid ActRIIB ligand trap proteins were initially analyzed using Octect Red (ForteBio). Purified proteins or conditioned media were individually loaded to AHC biosensors with maximum loading. Following a baseline washing phase, the sensors were exposed to 10 nM myostatin or BMP9, respectively, for an association step followed by a dissociation step. All experiments were performed with shaking at 1,000 rpm. Binding activity was analyzed using ForteBio's software with KD being calculated using the ratio Kd/Ka.
# BMP9 [4] = target: T2, BMP9; test: Octet Red BLI; trap loaded on AHC biosensor
# Description: as §1
binder,measurement,setting,value
B1,Cell-Based IC50 (nM) Against Activin B; C2C12-CAGA-luc reporter,activin B,1.04 nM
same,Cell-Based IC50 (nM) Against BMP9; C2C12-BRE-luc reporter,BMP9 [1],3.4 nM
same,Cell-Based IC50 (nM) Against Activin A; C2C12-CAGA-luc reporter,activin A,1.27 nM
same,Cell-Based IC50 (nM) Against Myostatin; C2C12-CAGA-luc reporter,myostatin [2],1.24 nM
B2,Cell-Based IC50 (nM) Against Activin B; C2C12-CAGA-luc reporter,activin B,2.1 nM
same,Cell-Based IC50 (nM) Against Activin A; C2C12-CAGA-luc reporter,activin A,1.15 nM
same,Cell-Based IC50 (nM) Against Myostatin; C2C12-CAGA-luc reporter,myostatin [2],0.95 nM
B3,Cell-Based IC50 (nM) Against Activin B; C2C12-CAGA-luc reporter,activin B,1.3 nM
same,Cell-Based IC50 (nM) Against Activin A; C2C12-CAGA-luc reporter,activin A,1.62 nM
same,Cell-Based IC50 (nM) Against Myostatin; C2C12-CAGA-luc reporter,myostatin [2],1.14 nM
B4,KD,myostatin [3],< 10 nM
same,binding result,BMP9 [4],no binding (tested: 10 nM BMP9)

# Source: patent US20260209306A1 (ALIVEGEN, published 2026)
